Measured values published in patent US20170306005A1 (NASCIENT, published 2017).
Positions count from the first letter of the chain named. In names and notes the source's numbering stands. Blank lines part the entries; values can stand above or below the binder they belong to.

How the values were obtained:
[1] = biological target: T1, Human FGB-rCd4; experiment: ELISA (DELFIA), antigen coated on the well, purified Fab at 50 nM, detected with anti-kappa or anti-lambda mAb and Europium-conjugated anti-mouse mAb
T1 construct: Not the same construct as m1, which has the FBG at the C terminus; also called human TNC FBG-rCD4; human tenascin-C FBG-rCd4-His (FBG at the N terminus of the rat Cd4 tag); not shown: rat Cd4 (domains 3 and 4) tag, the C-terminal His6 tag and the vector-derived junction residues of pBIOCAM4
T1 chain: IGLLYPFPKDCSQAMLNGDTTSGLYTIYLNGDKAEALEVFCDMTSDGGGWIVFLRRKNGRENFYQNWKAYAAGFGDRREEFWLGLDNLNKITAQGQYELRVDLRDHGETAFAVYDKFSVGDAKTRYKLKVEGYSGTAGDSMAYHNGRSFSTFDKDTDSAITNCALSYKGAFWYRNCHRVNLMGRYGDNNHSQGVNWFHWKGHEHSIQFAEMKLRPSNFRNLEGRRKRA

[2] = biological target: T2, human tenascin-C rCd4-His-FBG (rat; human, UniProt P05540 207-392, limits assumed); experiment: SPR, captured Fab, 25 C
T2 construct: domain: domains 3 and 4; C-terminal FBG fusion; biotinylated in the ELISA and HTRF screens; also called Hu TNC; human TNC rCd4-His-FBG; not shown: 6His tag
T2 sequence (chain (part 1 of 2)): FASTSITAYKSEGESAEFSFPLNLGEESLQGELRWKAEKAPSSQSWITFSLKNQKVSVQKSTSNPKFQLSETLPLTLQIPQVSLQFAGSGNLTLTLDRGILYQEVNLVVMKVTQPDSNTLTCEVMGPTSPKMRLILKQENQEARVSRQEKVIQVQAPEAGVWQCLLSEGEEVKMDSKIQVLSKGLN
T2 sequence (chain (part 2 of 2)): T1 chain
Description: (§1) Experiments were performed using a BIAcore T100 instrument with CM5 sensor chip according to the protocol provided with the Human Fab Capture Kit (GE, 28-9583-25). […] After reference signal subtraction, the data was fitted to a global 1:1 fit using the T100 BIAevaluation software (FIGS. 6 a-d).

[3] = biological target: T3, mouse tenascin-C rCd4-His-FBG (rat; mouse, UniProt P05540 207-392, limits assumed); experiment: SPR, captured Fab, 25 C
T3 construct: domain: domains 3 and 4; C-terminal FBG fusion; biotinylated in the ELISA screen; also called Mu TNC; mouse TNC rCd4-His-FBG; not shown: 6His tag
T3 sequence (chain (part 1 of 2)): T2 sequence (chain (part 1 of 2))
T3 sequence (chain (part 2 of 2)): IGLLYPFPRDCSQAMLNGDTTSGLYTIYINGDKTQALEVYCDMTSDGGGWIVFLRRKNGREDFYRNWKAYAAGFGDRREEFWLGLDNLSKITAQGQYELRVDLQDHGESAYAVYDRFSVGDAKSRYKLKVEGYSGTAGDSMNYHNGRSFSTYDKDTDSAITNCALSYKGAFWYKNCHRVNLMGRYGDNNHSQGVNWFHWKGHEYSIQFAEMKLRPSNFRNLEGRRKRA
Description: as §1

[4] = biological target: T4, human Fc-His-FBG (human, UniProt P24821 1974-2201); experiment: cell-based or functional assay
T4 sequence: T1 chain

[5] = biological target: T5, human tenascin-R rCd4-His-FBG (rat; human, UniProt P05540 207-392, limits assumed); experiment: SPR steady state, captured Fab, 25 C
T5 construct: domain: domains 3 and 4; C-terminal FBG fusion; also called Hu TNR; human TNR rCd4-His-FBG; not shown: 6His tag
T5 sequence (chain (part 1 of 2)): T2 sequence (chain (part 1 of 2))
T5 sequence (chain (part 2 of 2)): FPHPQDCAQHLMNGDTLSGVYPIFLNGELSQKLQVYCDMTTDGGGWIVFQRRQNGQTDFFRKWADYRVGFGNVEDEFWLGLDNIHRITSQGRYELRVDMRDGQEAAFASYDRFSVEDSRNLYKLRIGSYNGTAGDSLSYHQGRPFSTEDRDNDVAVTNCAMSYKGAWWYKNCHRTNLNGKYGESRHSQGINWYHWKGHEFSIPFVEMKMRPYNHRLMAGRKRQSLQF
Description: as §1

[6] = biological target: T3, mouse tenascin-C rCd4-His-FBG; experiment: SPR, parental antibody
[7] = biological target: T5, human tenascin-R rCd4-His-FBG; experiment: SPR, captured Fab, 25 C
Description: as §1

[8] = biological target: T3, mouse tenascin-C rCd4-His-FBG; experiment: SPR steady state, captured Fab, 25 C
Description: as §1

[9] = biological target: T5, human tenascin-R rCd4-His-FBG; experiment: SPR (BIAcore), Fab captured (23 nM) on anti-CL kappa / anti-CL lambda CM5 sensor chip, rCd4-FBG injected up to 2 µM; steady-state plot of response against concentration [Con't]
Description: as §1

[10] = biological target: T5, human tenascin-R rCd4-His-FBG; experiment: SPR off-rate screen, captured IgG4 supernatant, 25 C; SPR off-rate screen, native antigen at 100 nM, IgG4 in supernatant, 25 C
Description: The 31 scFv of interest were sub-cloned into a human IgG4 expression vector for generation of antibodies as human IgG4 with a hinge-stabilising mutation (S241P; Angal et al, 1993). […] Briefly, surface plasmon resonance (SPR) experiments were performed using a BIAcore T100 instrument and followed the protocol according to the Human antibody capture kit protocol (GE, BR-1008-39). For off-rate screening, 10,000 response units (RU) of anti-human Fc IgG (GE, BR-1008-39) was immobilised on flow-cells (FC1 and FC2) of a Series 5 CM5 dextran sensor chip (BR-1005-30) using EDC/NHS cross-linking chemistry according to the amine coupling kit protocol (GE, BR-1000-50). Culture supernatants containing expressed IgG4 were diluted 1:2 with 2×PBS-T and injected into FC2 (flowrate 5 μl/min, 60 s contact time) to enable antibody capture at 25° C. […] A fixed concentration of antigen (15 nM of human and mouse TNC rCd4-His-FBG and 100 nM of human TNR rCd4-His-FBG) was injected with a flow-path via FC 1 (reference flow cell) and FC 2 (antibody capture flow cell), with a flow rate of 30 μl/min, and the association and dissociation phases measured over 1 and 5 min time periods, respectively. […] Off rates were determined by reference cell subtraction and fitting the sensogram experimental data assuming a 1:1 interaction using BIAevaluation software (GE, BR-1005-97).

[11] = biological target: T2, human tenascin-C rCd4-His-FBG; experiment: SPR, captured purified IgG4, 37 C
Description: (§2) Detailed kinetic parameters were evaluated for the 9 prioritised IgG4 antibodies. Binding characteristics were determined for interaction with human, rat and dog TNC rCD4-His-FBG, and human TNR rCD4-His-FBG. Kinetic assays followed essentially the same protocols as for the off-rate determinations described above, with some modifications as follows. […] Purified anti-FBG IgG4 was diluted to a concentration of 3.5 nM in PBS, pH 7.4, 0.05% Tween-20 and injected into FC2 at a flow rate of 10 μl/min, 60 s contact time. […] Antigens were prepared by doubling dilution in PBS, pH 7.4, 0.05% Tween-20 (highest concentration 100 nM except mouse rCD4-His-FBG which was 7 nM). Assays were performed at 37° C. (30 μl/min, 120 s contact time; mouse rCD4-His-FBGFBG 10 μl/min, 60 s contact time), with both the flow cell and injection chamber equilibrated to this temperature. As before, kinetic parameters were determined by reference cell subtraction and fitting the sensogram experimental data assuming a 1:1 interaction using BIAevaluation software (GE, BR-1005-97).

[12] = biological target: T3, mouse tenascin-C rCd4-His-FBG; experiment: SPR, captured purified IgG4, 37 C
Description: as §2

[13] = biological target: T6, human His-FBG citrullinated with PAD4 (human, UniProt P24821 1974-2201, arginines citrullinated by peptidylarginine deiminase 4; positions not stated); experiment: SPR, captured IgG4, 25 C, mean of 3
T6 construct: also called His-FBG + PAD4; citrullinated His-FBG; not shown: His tag
T6 sequence: T1 chain
Description: (§3) Purified human His-FBG was citrullinated using either peptidylarginine deiminase 2 (PAD2; MQ-16.201-2.5, Modiquest, NL) or peptidylarginine deiminase 4 (PAD4; MQ-16.203-2.5, Modiquest, NL) according to the supplier's instructions. […] Aliquots of His-FBG in deimination buffer were incubated for 2 h at 37° C. in the absence of added PAD enzyme, for use as non-citrullinated control protein. Citrullinated and unmodified His-FBG proteins were used in SPR experiments as described below.
(§4) SPR experiments were performed on a BIAcore 3000 instrument. Anti-human IgG (GE Healthcare) was covalently coupled to the surface of a CM5 sensor chip using amino coupling chemistry. […] The flow rate was 5 μl/min in the immobilization experiments and 20 μl/min for kinetic analyses. The sensor chip surface was regenerated using 3 M MgCl₂. Data were analysed using BIAevaluation program 4.1 (GE Healthcare).

[14] = biological target: T7, human His-FBG citrullinated with PAD2 (human, UniProt P24821 1974-2201, arginines citrullinated by peptidylarginine deiminase 2; positions not stated); experiment: SPR, captured IgG4, 25 C, mean of 3
T7 construct: also called His-FBG + PAD2; citrullinated His-FBG; not shown: His tag
T7 sequence: T1 chain
Description: as §3, §4

[15] = biological target: T8, human His-FBG (human, UniProt P24821 1974-2201); experiment: SPR, captured IgG4, 25 C, mean of 3
T8 construct: non-citrullinated control, incubated in deimination buffer without PAD enzyme; also called unmodified His-FBG; not shown: His tag
T8 sequence: T1 chain
Description: as §3, §4

[16] = biological target: T2, human tenascin-C rCd4-His-FBG; experiment: SPR off-rate screen, captured IgG4 supernatant, 25 C
In short: (§5)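 SPR at 25 °C: IgG4 (S241P) from culture supernatant, diluted 1:2 in 2×PBS-T, captured on anti-human Fc surface; antigen injected at a fixed 15 nM (human and mouse TNC rCd4-His-FBG) or 100 nM (human TNR rCd4-His-FBG), 30 μl/min. Association 1 min, dissociation 5 min; off-rates from reference-subtracted 1:1 fits.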

[17] = biological target: T3, mouse tenascin-C rCd4-His-FBG; experiment: as above
In short: as §5

binding result [1]: binds
Kd [2]: 27.4 nM
koff [2]: 0.00346 s⁻¹
kon [2]: 126000 M⁻¹ s⁻¹
Kd [3]: 70.6 nM
koff [3]: 0.00642 s⁻¹
kon [3]: 91000 M⁻¹ s⁻¹
IC50, inhibition of Fc-His-HuFBG-evoked IL-8 release, THP1-Blue cells [4]: 13.8 nM
IC50, inhibition of Fc-His-HuFBG-evoked alkaline phosphatase, THP1-Blue cells [4]: 8.4 nM
Kd [5]: 1810 nM
fold difference in affinity between human and mouse rCd4-his-FBG [6]: 2.6 fold
B1: Fab F3 (Fab, V domains shown)
VH: EVQLLESGGGLVQPGGSLRLSCAASGFTFSSYGMHWVRQAPGKGLEWVAVISYDGSNKYYADSVKGRFTISRGNSKNTLYLQMNSLKAEDTAVYYCAREGYDQLFSAESNAFDIWGQGTLVTVSS
VL: NFMLAQPHSVSESPGKTVTISCTRSSGSIASYFVQWFQQRPGSAPTAVIYEDNQRPSGVPDRFSGSIDSSSNSASLTISGLKTEDEADYYCQSYDSSNWVFGGGTKVTVLG
notes: monomeric Fab

binding result [1]: binds
Kd [2]: 8.49 nM
koff [2]: 0.0131 s⁻¹
kon [2]: 1.54e+06 M⁻¹ s⁻¹
Kd [3]: 48.4 nM
koff [3]: 0.0716 s⁻¹
kon [3]: 1.48e+06 M⁻¹ s⁻¹
Kd [7]: 1030 nM
koff [7]: 0.57 s⁻¹
kon [7]: 555000 M⁻¹ s⁻¹
IC50, inhibition of Fc-His-HuFBG-evoked IL-8 release, THP1-Blue cells [4]: 14.9 nM
IC50, inhibition of Fc-His-HuFBG-evoked alkaline phosphatase, THP1-Blue cells [4]: 7.2 nM
Kd [8]: 41.2 nM
Kd [5]: 913 nM
Kd [9]: 1110 nM
B2: Fab D8 (Fab, V domains shown)
VH: EVQLVQSGAEVKKPGASVKVSCKASGYTFTSYGISWVRQAPGQGLEWMGWISAYNGNTNYAQKLQGRVTMTTDTSTSTAYMELRSLRSDDTAVYYCARNQDSSSDYWGQGTLVTVSS
VL: DIQMTQSPASLPTSVGDRVTITCRASQYIQGFLNWYQQKPGKAPKLLIYDASNLETGVPSRFSGSGSGTDFTLTISSLQPEDFATYYCQQSYSTLQTFGQGTKVDIKR
notes: monomeric Fab

koff [10]: 0.1 s⁻¹
Kd [11]: 0.24 nM
koff [11]: 0.00112 s⁻¹
kon [11]: 4.71e+06 M⁻¹ s⁻¹
Kd [12]: 4.5 nM
koff [12]: 0.00138 s⁻¹
kon [12]: 300000 M⁻¹ s⁻¹
Kd [13]: 0.32 nM
koff [13]: 0.00078 s⁻¹
kon [13]: 2.6e+06 M⁻¹ s⁻¹
Kd [14]: 0.32 nM
koff [14]: 0.00096 s⁻¹
kon [14]: 3e+06 M⁻¹ s⁻¹
Kd [15]: 0.17 nM
koff [15]: 0.00068 s⁻¹
kon [15]: 4.1e+06 M⁻¹ s⁻¹
koff [16]: 0.00015 s⁻¹
koff [17]: 0.03 s⁻¹
B3: B12 human IgG4 (antibody, V domains shown)
VH: QVQLVESGGGLVQPGRSLRLSCAASGFTFDDYAMHWVRQAPGKGLEWVSGISGSGGSTYYADSVKGRFTISRDNAKNSLYLQMNSLRAEDTALYYCAKDISAVPDTFDIWGQGTMVTVSS
VL: B2 VL with S14P, L95P
notes: human IgG4 with hinge S241P; also called B12 parent; B12-hIgG4
